Experimental data taken from the nanobody polyreactivity screen of Harvey et al. (2022).

Assay: yeast display, Sf9 membrane polyspecificity reagent, FACS + sequencing; frameworks hold sequencing errors
Outline: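 Genes from sorted yeast were amplified by colony PCR, read by MiSeq 2 × 250 sequencing and filtered on CDR length. These cells carried a synthetic nanobody library in Saccharomyces cerevisiae BJ5465 and were sorted by FACS into low and high (top ~1%) gates on anti-HA and streptavidin fluorescence. Polyreactivity is labelled according to the gate of origin.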

Sequence	polyreactivity (PSR sort gate)
QVQLVESGGGLVQAGGSLRLSCAASGSTFVRYTMGWYRQAPGKERELVAGITGGGSTNYADSVKGRFTISRDNAKNTVYLQMNSLKPEDTAVYYCAADLWWERAYPEYDYWGQGTQVTVSS	low polyreactivity
QVQLVESGGGLVQAGGSLRLSCAASGSTFVSNTMGWYRQAPGKERELVAAITWGGGGTYYADSVKGRFTISRDNAKNTVYLQMNSLKPEDTAVYYCAAKVQGGYYDYDYWGQGTQVTVSS	low polyreactivity
QVQLVESGGGLVQAGGSLRLSCAASGSTFVSYDMGWYRQAPGKERELVATIRRGGSTYYADSVKGRFTISRDNAKNTVYLQMNSLKPEDTAVYYCAAQQYAKYGWYAYDYWGQGTQVTVSS	low polyreactivity
QVQLVESGGGLVQAGGSLRLSCAASGSTFVTNDMGWSRQAPGKERELVAAISSGTSTNYAYSVKGRFTISRDNAKNTVYLQMNSQKPEDTAVYYCAADSLKRYDYWGQGTQVTVSS	low polyreactivity
QVQLVESGGGLVQAGGSLRLSCAASGSTFVTYAMGWYRQAPGKERELVAAISSGGGNTYYADSVKGRFTISRDNAKNTVYLQMNSLKPEDSAVYYCAAVNPRSEYDYWGQGTQVTVSS	high polyreactivity
QVQLVESGGGLVQAGGSLRLSCAASGSTFVTYAMGWYRQAPGKERELVAAISYSGGSTYADSVKGRFTISRDNAKNTVYLQMNSLKPEDTAVYYCNSDTSVDVRFDYWGQGTQVTVSS	low polyreactivity
QVQLVESGGGLVQAGGSLRLSCAASGSTFVVNAMGWYRQAPGKERELVAAITQDGDGTYYADSVKGRFTISRDNAKNTVYLQMNSLKPEDTAVYYCAAYPFYGPYDEFDYWGQGTQVTVSS	low polyreactivity
QVQLVESGGGLVQAGGSLRLSCAASGSTFVVYAMGWYRQAPGKERELLAAIRANVGGTYYADSVKGRFTISRDNAKNTVYLQMNSLKPEDTAVYYCAAGGYYYNPSFTYGILDYEYCGQGTQVTVSS	low polyreactivity
QVQLVESGGGLVQAGGSLRLSCAASGSTFVWYVMGWYRQAPGKEREFVAAISTSGGRTYYADSVKGRFTISRDNAKNTGYLQMNSLKPEDTAVYYCATRPYFTYRWYDYWGQGTQVTVSS	high polyreactivity
QVQLVESGGGLVQAGGSLRLSCAASGSTFVYNAMGWDRQAPGKERELVAAITVSDGSTYYADSVKGRFTISRDNAKNTVYLHMKSLKPEDTAVFYCNADFPRKTRYEYWGQGTQVTVSS	low polyreactivity
QVQLVESGGGLVQAGGSLRLSCAASGSTFVYNAMGWYRQAPGKERELVAAISWSDGSTYYADSVKGRFTISRDNAKNTVYLELNSLKPEDTAVYYCADEGYYSWDVHDYNYWGQGTQVTVSS	high polyreactivity
QVQLVESGGGLVQAGGSLRLSCAASGSTFVYYAKGWYRQAPGKEREFVAAISISTGSTYYADSVKGRFTISRDNAKNTVYLQMNSLKPEDTAVYYCAVDWFLGGYDDLDYWGQGTQVTVSS	low polyreactivity
QVQLVESGGGLVQAGGSLRLSCAASGSTFVYYAMGWYRQAPGKERELVARISSTGSTNYADSVKGRFTISRDNAKNTVYLQMHSLKPEDTAVYYCAARGPSPGHGTYTRTRGQSYYYWGQCTQVTVSS	high polyreactivity
QVQLVESGGGLVQAGGSLRLSCAASGSTFVYYTMGLYRQAPGKERELVAAISWRGDDTYYSDSVKGRFTISRDNAKNTVYLQMNSLKPEDTAVYYCAGEPVSTYYWTFGDYWGQGYQVTVSS	low polyreactivity
QVQLVESGGGLVQAGGSLRLSCAASGSTFVYYVMGWYRQAPGKQRELVAAISTSGGSTYYADSVKGRFTISRDNAKKTVYLQMNSLKPEDTAVYYCAARVYYKYDYWGQGTQVTVSS	low polyreactivity
QVQLVESGGGLVQAGGSLRLSCAASGSTFWANAMGWYRPAPGKERELLAGITWNAGSTYYADSVKGRYTISRDNAKNNVYLQLNSLKPEDTAVYYCAAYYHFQGWGPGYNSCGQGTQVTVSS	low polyreactivity
QVQLVESGGGLVQAGGSLRLSCAASGSTFWANAMGWYRPAPGKERELVAAISRNGGSTYYADSVKGRFTISRDNAKNTVYLQMNSLKPEDTAVYYCAAKKYYYRRQLDYWGQGTQVTVSS	high polyreactivity
QVQLVESGGGLVQAGGSLRLSCAASGSTFWDNAMGWYRQAPGKERELVAAITAIGGTTYYADSVKGRFTISRDNAKNTVYLQMNSLKPEDTAVYYCAADWTTYGFSYFSIYYYWGQGTQVTVSS	low polyreactivity
QVQLVESGGGLVQAGGSLRLSCAASGSTFWDYAMGWYRQAHGKERELVAAITDSGGSTYYADSVKGRFTISRDNAKNTVYLQMNSLKPEDTAVYYCAAEAYIWWAWEYEYWGQGPQVTVSS	high polyreactivity
QVQLVESGGGLVQAGGSLRLSCAASGSTFWDYAMGWYRQAPGKERELVASISSGGRTYYADSVKGRFTISRDNAKNTVYLQMNSLKPEDTAVYYCARRSWWDYYSWGQGTQVTVSS	high polyreactivity
QVQLVESGGGLVQAGGSLRLSCAASGSTFWENSMGWYRQAPGKERELVAAISWGGGSTYYADSVKGRFTISRDNAKNTVYLQMNSLKPEDTAGYYCAADQTSPQFLTSYGGYNYWGQGTQVTVSS	low polyreactivity
QVQLVESGGGLVQAGGSLRLSCAASGSTFWEYVMGWYRQAPGKERELVAAITTNDDSTYYADSVKGRFTISRDNAKNTVYLQMNSLKPEDTAVYYFNADQITGQFDYWGQGTQVTVSS	low polyreactivity
QVQLVESGGGLVQAGGSLRLSCAASGSTFWFYAMGWYRQAPGKERELVAVISNSGSTYYADSVKGRFTISRDNAKNTVYLQMNSLKPEDTAVYYCAAYAYQYRFSGYGYWGQGTQVTVSS	low polyreactivity
QVQLVESGGGLVQAGGSLRLSCAASGSTFWFYPMGRYRQAPGKERELVAVISNSGSTYYADSVKGRFTISRDNAKNTVYLQMNSLKPEDTAVYYCNKDGGGDSYWYDYWGQGTQVTVSS	low polyreactivity
QVQLVESGGGLVQAGGSLRLSCAASGSTFWGYAMGWYRQAPGKERELVAAITSGGRTDYADSVKGRFTISRHNAKNTVYLQMNSRKPEDTAVYYCNAYLYYYRYHYNYWGQGTQVTVSS	low polyreactivity
QVQLVESGGGLVQAGGSLRLSCAASGSTFWGYAMGWYRQAPGKERELVATINQSAGSTYYADSVKGRFTISRDNAKNTVYLQMNSLKPEDTAVYYCAAEARVQFSYDYWGQGTQVTVSS	low polyreactivity
QVQLVESGGGLVQAGGSLRLSCAASGSTFWKYAMGWYRQAPGKERELVARISRNGGSTYYADSVKGRFTISRDNAKNTVYLQMNSLKPEDTAVYYCATAYVHYVYKYDYWGQGTQVTVSS	high polyreactivity
QVQLVESGGGLVQAGGSLRLSCAASGSTFWLNAMGWYRQAPGKEREFVAAITWSSGSTYYADSVKGRFTISRDNAKNTVYLQMNSLKPEDTAVYYCAADGRYVRIRGDYWGQGTQVTVSS	low polyreactivity
QVQLVESGGGLVQAGGSLRLSCAASGSTFWLYAMGWYREAPGKERELVATISERGGSTYYADSVKGRFTISRDYAKNTVYFQMNSLKPEDTAVYYCAADQFHYPRGRRYDYWGQGTQVTVSS	low polyreactivity
QVQLVESGGGLVQAGGSLRLSCAASGSTFWLYAMGWYRQAPGKEREFVATISSSTTYYADSVKGRFTISRDNAKNTVYFQMNSLKPQDTAVYYCNAADYYSDVWSSVDYEGDYWGQGTQVTVSS	low polyreactivity
